According to US20060166860A1, “Zinc transporter compositions for the treatment of cardiovascular diseases” (priority 2002, published 2006):
“Also recorded” adds a separate entry of the source.

Key:
ZnT-1 = ZnT-1 expression in cultured brain astrocytes by Western Blot; format: cell-based; conditions: 20 and 50 μM Zn for 12 hours (FIG. 9)
Experimental: (§1) Western Blots were carried out in the classical method described in Molecular Cloning—A laboratory manual by Sambroock et al., Cold Spring Harbor Laboratory Press, 2nd edition, 1989.
In astrocytes, zinc influx is mainly mediated by the LTCC. Astrocytes were treated with sub-lethal amounts (20 and 50 μM) of Zn for 12 hours, and ZnT-1 expression evaluated by Western Blot (FIG. 9b).

LTCC [1] = test: Zinc influx in astrocytes pre-treated with zinc; format: cell-based; conditions: astrocytes pre-treated with 20, 50 or 100 μM zinc for 24 or 48 hours (FIG. 10)
Experimental: Cells were superfused with a Ringer's solution containing: 120 mM NaCl, 5 mM KCl, 20 mM glucose, 10 mM Hepes, 0.5 mM MgCl, 1.8 mM CaCl2 at pH 7.4. For depolarization experiments aimed to fully activate the LTCC, 45 mM NaCl were replaced with 45 mM KCl. ZnSO4 was added at the indicated concentration to this solution.
Cells were incubated for 30 minutes with 5 μM of the ratiometric dye Fura-2-AM (TEF Labs) in 0.1% BSA-sodium Ringer's solution. Fura-2-AM binds zinc with very high affinity. After incubation, the cells were washed in Ringer's solution and the cover glass mounted on a holder that allowed the perfusion of liquids into the cells. Signals resulting from Ca^+2 or Zn^+2 changes were distinguished by using the intracellular zinc chelator TPEN. Changes in intracellular cation concentration were monitored by a single cell imaging system, consisting of a Zeiss Axiovert 100, inverted microscope, Polychrome II monochromator (TILL Photonics) and a cooled CCD (PCO). The data was acquired and processed by Axon Imaging Workbench 2, Excel and KleidaGraph. […] The data was analyzed post acquisition, by selecting single cells (30-50) from the field of view and recording their activity.
Astrocytes were pre-treated with 20, 50 or 100 μM of zinc for 24 or 48 hours, and subsequent rates of zinc influx were determined. […]

intracellular zinc = test: Fura-2 fluorescence signal of intracellular zinc in HEK 293 cells; format: cell-based, human; conditions: HEK 293 cells exposed to zinc, then TPEN (FIG. 1, FIG. 3 inset)
Experimental: Cells were incubated for 30 minutes with 5 μM of the ratiometric dye Fura-2-AM (TEF Labs) in 0.1% BSA-sodium Ringer's solution. Fura-2-AM binds zinc with very high affinity. After incubation, the cells were washed in Ringer's solution and the cover glass mounted on a holder that allowed the perfusion of liquids into the cells. Signals resulting from Ca^+2 or Zn^+2 changes were distinguished by using the intracellular zinc chelator TPEN. Changes in intracellular cation concentration were monitored by a single cell imaging system, consisting of a Zeiss Axiovert 100, inverted microscope, Polychrome II monochromator (TILL Photonics) and a cooled CCD (PCO). The data was acquired and processed by Axon Imaging Workbench 2, Excel and KleidaGraph. Fura-2 was excited at 340 nm and 380 nm and the image obtained with a 510 nm long-pass filter. The data was analyzed post acquisition, by selecting single cells (30-50) from the field of view and recording their activity.
To measure the accumulation of intracellular zinc, HEK 293 cells were superfused with Ca-free, zinc-containing Ringer solution, and the […] of Fura-2 was evaluated. Fura-2 is a highly sensitive probe for changes in intracellular Zn^2+ concentration.

L-type Ca channel (LTCC) = test: Zinc influx into HEK 293 cells, Fura-2 fluorescence; format: cell-based, human; conditions: control vs ZnT-1 transfected HEK 293 cells, 400 μM zinc (FIG. 4a)
Experimental: (§2) PC12 and human embryonic kidney (HEK) 293 cells were grown in DMEM medium (Sigma) as described [Montrose Rafizadeh, C. et al. (1997) J. Cell Physiol. 170:299-308], and seeded on cover slides for 1-2 days prior to measurements.
(§3) HEK 293 cells were transiently transfected with 3 μg of plasmid containing ZnT-1 (kindly provided by Dr. R. D. Palmiter, Howard Hughes Medical Institute, University of Washington, Seattle, Wash.) or vector alone, using the calcium precipitation method as described [Sekler, I. et al. (1995) J Biol. Chem. 270:11251-6]. Pherochromocytoma PC12 cells were co-transfected with ZnT-1 or EYFP (Clontech) for control, using the Fugene-6 reagent (Roche). Measurements were performed 36-48 hours following transfection. […]
(§4) Cells were incubated for 30 minutes with 5 μM of the ratiometric dye Fura-2-AM (TEF Labs) in 0.1% BSA-sodium Ringer's solution. […] Changes in intracellular cation concentration were monitored by a single cell imaging system, consisting of a Zeiss Axiovert 100, inverted microscope, Polychrome II monochromator (TILL Photonics) and a cooled CCD (PCO). […] The data was analyzed post acquisition, by selecting single cells (30-50) from the field of view and recording their activity. […]
Control and ZnT-1 transfected HEK 293 cells were exposed to 400 μM zinc, and the rate of zinc influx was monitored over time (FIG. 4a-b).

LTCC [2] = test: Zinc influx into HEK 293 cells transfected with LTCC alone or with ZnT-1; format: cell-based, human
Experimental: as §2, §3
Cells were incubated for 30 minutes with 5 μM of the ratiometric dye Fura-2-AM (TEF Labs) in 0.1% BSA-sodium Ringer's solution. […] Changes in intracellular cation concentration were monitored by a single cell imaging system, consisting of a Zeiss Axiovert 100, inverted microscope, Polychrome II monochromator (TILL Photonics) and a cooled CCD (PCO). […] The data was analyzed post acquisition, by selecting single cells (30-50) from the field of view and recording their activity.
Rates of zinc influx into HEK293 cells transfected with LTCC only or co-transfected with LTCC and ZnT-1 were measured. […]

L-type Ca channels = test: Ca influx into depolarized PC12 cells expressing endogenous L-type Ca channels; format: cell-based; conditions: ZnT-1 transfected vs control PC12 cells, 1.8 mM calcium, high K+ (FIG. 8)
Experimental: as §2
(§5) HEK 293 cells were transiently transfected with 3 μg of plasmid containing ZnT-1 (kindly provided by Dr. R. D. Palmiter, Howard Hughes Medical Institute, University of Washington, Seattle, Wash.) or vector alone, using the calcium precipitation method as described [Sekler, I. et al. (1995) J Biol. Chem. 270:11251-6]. Pherochromocytoma PC12 cells were co-transfected with ZnT-1 or EYFP (Clontech) for control, using the Fugene-6 reagent (Roche). Measurements were performed 36-48 hours following transfection.
Cells were superfused with a Ringer's solution containing: 120 mM NaCl, 5 mM KCl, 20 mM glucose, 10 mM Hepes, 0.5 mM MgCl, 1.8 mM CaCl2 at pH 7.4. […]
as §4

HEK 293 cells = test: Zinc efflux in HEK 293 cells transfected with ZnT-1; format: cell-based, human; conditions: cells transfected with ZnT-1 vs non-transfected (FIG. 3)
Experimental: as §2, §5
Cells were incubated for 30 minutes with 5 μM of the ratiometric dye Fura-2-AM (TEF Labs) in 0.1% BSA-sodium Ringer's solution. Fura-2-AM binds zinc with very high affinity. […] Changes in intracellular cation concentration were monitored by a single cell imaging system, consisting of a Zeiss Axiovert 100, inverted microscope, Polychrome II monochromator (TILL Photonics) and a cooled CCD (PCO). […] The data was analyzed post acquisition, by selecting single cells (30-50) from the field of view and recording their activity.

LTCC [3] = test: LTCC expression by immunoblot, HEK 293 cells transfected with LTCC; format: cell-based, human; conditions: presence or absence of ZnT-1 (FIG. 7)
Experimental: as §1
(§6) Thus, ZnT-1 putative regulation of LTCC is likely to be at the functional level, and not at the expression level.

LTCC [4] = test: LTCC expression by immunoblot, PC12 cells endogenously expressing LTCC; format: cell-based; conditions: presence or absence of ZnT-1 (FIG. 7)
Experimental: as §1, §6

LTCC [5] = test: Immunoprecipitation with ZnT-1 antibody and Western blot with LTCC antibody, HEK 293 cells; format: binding, human; conditions: HEK 293 cells co-transfected with LTCC and ZnT-1 (FIG. 11)
Experimental: as §1
(§7) Immunopercipitation using ZnT-1 antibody followed by Western blot with LTCC antibody was performed.

LTCC [6] = test: Immunoprecipitation with ZnT-1 antibody and Western blot with LTCC antibody, cardiac tissue; format: binding; conditions: mouse cardiac tissue expressing both ZnT-1 and LTCC (FIG. 11)
Experimental: as §1, §7

[Zn+2] [Zinc, ZnSO4]
ZnT-1 expression (ZnT-1; listed as Zn^2+): induced by Zn^2+ in a dose-dependent manner | ZnT-1 expression (ZnT-1; listed as Zn^+2): induced by Zn^+2 in a dose-dependent manner | rate of zinc influx (LTCC [1]): reduction of zinc influx

c1ccc(CN(CCN(Cc2ccccn2)Cc2ccccn2)Cc2ccccn2)nc1 [TPEN, tetrakis-(2-pyridylmethyl)ethylenediamine]
Fura-2 fluorescence signal (intracellular zinc): lowered the fluorescence signal; also recorded: eliminated

B1: ZnT-1: protein encoded by the gene ZnT-1, originally described as a zinc transporter; GenBank Accession No. U17132; expressed by transfection (protein, UniProt Q9Y6M5 1-507, looked up)
Proton-coupled zinc …: MGCWGRNRGRLLCMLALTFMFMVLEVVVSRVTSSLAMLSDSFHMLSDVLALVVALVAERFARRTHATQKNTFGWIRAEVMGALVNAIFLTGLCFAILLEAIERFIEPHEMQQPLVVLGVGVAGLLVNVLGLCLFHHHSGFSQDSGHGHSHGGHGHGHGLPKGPRVKSTRPGSSDINVAPGEQGPDQEETNTLVANTSNSNGLKLDPADPENPRSGDTVEVQVNGNLVREPDHMELEEDRAGQLNMRGVFLHVLGDALGSVIVVVNALVFYFSWKGCSEGDFCVNPCFPDPCKAFVEIINSTHASVYEAGPCWVLYLDPTLCVVMVCILLYTTYPLLKESALILLQTVPKQIDIRNLIKELRNVEGVEEVHELHVWQLAGSRIIATAHIKCEDPTSYMEVAKTIKDVFHNHGIHATTIQPEFASVGSKSSVVPCELACRTQCALKQCCGTLPQAPSGKDAEKTPAVSISCLELSNNLEKKPRRTKAENIPAVVIEIKNMPNKQPESSL
notes: protein encoded by the gene ZnT-1, originally described as a zinc transporter; expressed by transfection
rate of zinc influx (L-type Ca channel (LTCC)): attenuated | zinc influx (LTCC [2]; HEK 293, co-expression of LTCC and ZnT-1 vs LTCC alone and non-transfected control (FIG. 6)): reduction in the zinc influx to levels comparable to control; also recorded: reduction in the cation influx to levels comparable to control | reduction in rate of zinc permeation through LTCC (LTCC [2]; HEK293 co-transfected with LTCC and ZnT-1 vs LTCC alone (FIG. 4c)): 5 fold | rate of Ca influx (L-type Ca channels): inhibits the rate of Ca influx | zinc efflux (HEK 293 cells): not accelerated | LTCC expression level (LTCC [3]): Neither cell type showed changes; also recorded: not changed | LTCC expression level (LTCC [4]): Neither cell type showed changes; also recorded: not changed; also recorded: without changing LTCC expression | co-immunoprecipitation of ZnT-1 with LTCC (LTCC [5]): much higher co-immunopercipitation; also recorded: reveals a band | co-immunoprecipitation of ZnT-1 with LTCC (LTCC [6]): A similar effect; also recorded: reveals a band
